This test has as its target Schistosoma japonicum glutathione S-transferase (GST) (Schistosoma japonicum). The test can be described thus: cross-linking.

Broadly, the stoichiometry N is the number of molecules, sites or subunits per partner or assembly.

For the substance “Schistosoma japonicum glutathione S-transferase (GST) (enzyme)”, the stoichiometry N turned out to be 2.

The values are drawn from article PMC2141736.
